The subject of assay [1] is radiant heat-induced tail-flick response in mice. As to the kind of experiment: Tail flick test, radiant heat-induced pain in mice. It counts as in vivo. As for the experimental part:
The tail flick test measures the time (max 15 s) required to elicit a radiant heat-induced tail-flick response in mice. Mice received 1000 mg/kg rhLF or placebo orally 60 minutes prior to test (N=5 per group).
On the technique in general: In hot-plate and tail-flick tests a longer latency is read as antinociception.

The subject of assay [2] is phenylquinone-induced writhes in mice. Nature of the assay: Phenylquinone (PQ)-induced writhing test in mice. In kind it is in vivo. The protocol: The PQ test measures the number of writhes seen during a 5-10 minute period following IP injection of phenylquinone in mice (2 mg/kg) (N=3). Mice received 1000 mg/kg rhLF or placebo orally 60 minutes prior to test (N=5 per group).
Background: Writhing tests count abdominal constrictions after an irritant is injected.

B1: recombinant human lactoferrin (protein, UniProt P02788 20-710, looked up)
Lactotransferrin: GRRRSVQWCAVSQPEATKCFQWQRNMRKVRGPPVSCIKRDSPIQCIQAIAENRADAVTLDGGFIYEAGLAPYKLRPVAAEVYGTERQPRTHYYAVAVVKKGGSFQLNELQGLKSCHTGLRRTAGWNVPIGTLRPFLNWTGPPEPIEAAVARFFSASCVPGADKGQFPNLCRLCAGTGENKCAFSSQEPYFSYSGAFKCLRDGAGDVAFIRESTVFEDLSDEAERDEYELLCPDNTRKPVDKFKDCHLARVPSHAVVARSVNGKEDAIWNLLRQAQEKFGKDKSPKFQLFGSPSGQKDLLFKDSAIGFSRVPPRIDSGLYLGSGYFTAIQNLRKSEEEVAARRARVVWCAVGEQELRKCNQWSGLSEGSVTCSSASTTEDCIALVLKGEADAMSLDGGYVYTAGKCGLVPVLAENYKSQQSSDPDPNCVDRPVEGYLAVAVVRRSDTSLTWNSVKGKKSCHTAVDRTAGWNIPMGLLFNQTGSCKFDEYFSQSCAPGSDPRSNLCALCIGDEQGENKCVPNSNERYYGYTGAFRCLAENAGDVAFVKDVTVLQNTDGNNNEAWAKDLKLADFALLCLDGKRKPVTEARSCHLAMAPNHAVVSRMDKVERLKQVLLHQQAKFGRNGSDCPDKFCLFQSETKNLLFNDNTECLARLHGKTTYEKYLGPQYVAGITNLKKCSTSPLLEACEFLRK
As for B1, the “reduction in pain as measured by number of tail flicks observed” value in assay [1] (1000 mg/kg orally 60 minutes prior to test, vs placebo (FIG. 1)) is “statistically significant reduction in pain”. Further, the “difference in tail flick response between placebo and treated groups at time zero” value in assay [1] (1000 mg/kg orally, time zero (FIG. 1)) is “No difference in response”. Moreover, in assay [2] (1000 mg/kg orally 60 minutes prior to test, IP phenylquinone 2 mg/kg, writhes during 5-10 minute period, vs placebo (FIG. 2)), the “reduction in pain as measured by number of writhes observed” value is on record as “reduction in pain”. Further, the “difference in writhing response between placebo and treated groups at time zero” value in assay [2] (1000 mg/kg orally, time zero (FIG. 2)) is “No difference in response”.

The values are drawn from patent US7638487B2, “Lactoferrin in the reduction of pain” (Agennix, Inc., priority 2002, dated 2009).
